Experimental data as given in US20180036405A1 (Regeneron, published 2018).
Substitutions are numbered along the chain they refer to. Names and notes keep the numbering of the source.

B1: H1H142P (antibody, human IgG1, V domains shown)
VH: QVQLQESGPGLVKPSQTLSLTCTVSGGSISSGDYYWNWIRQYPGKGLELIGYIYYSGITYYNPSLKSRLTISLDTSKNQFSLKLSSVTAADTAVYYCARDRVELRAFDIWGQGTMVTVSS
VL: DIQMTQSPSSLSASIGDRITISCQASQDINNYLNWYQQKPGKAPKLLIYDASNLETGIPSRFSGSGSGTDFTFTISGLQPEDIATYYCQHYDSLPLTFGQGTRLEIK
notes: Human IgG1 Fc (H1H)
B2: H1H0085N (antibody, V domains shown)
VH: EVQLVESGGGLVQPGRSLRLSCAASGFTFDDYAMHWVRQAPGKGLEWVSGINWNSDKIAYADSVKGRFTISRDNAENSLFLQMNSLRPEDTALYYCVKRGDFWTEYYDYWGQGTLVTVSS
VL: DIVMTQSPLSLPVTPGEPASISCRSSQSLLHSNGYNYLDWYLQKPGQSPHLLIYLVSTRASGVPDRFSGSGSGTDFTLKISRVEAEDVGVYYCIQALQTPWTFGQGTKVEIK
notes: Tested in human IgG1 Fc format (H1H prefix); first obtained as H1M (mouse IgG1 Fc) from a hybridoma; also called H1M085N; H1H085N
B3: H1H089N (antibody, human IgG1, V domains shown)
VH: B2 VH with E105D
VL: B2 VL with Y35H, T58N
notes: Tested in human IgG1 Fc format (H1H); also called H1M089N
B4: H1H086N (antibody, human IgG1, V domains shown)
VH: B2 VH with E105D
VL: B2 VL with I94M
notes: Tested in human IgG1 Fc format (H1H); also called H1M086N
B5: H1H151P (antibody, human IgG1, V domains shown)
VH: QVQLQESGPGLVNPSQTLSLTCTVSGGSINSGDYYWSWVRQHPGKGLEWIGYIYYSGSTYYNPSLKSRVTISVDTSKNQFSLKLSSVTVADTAVYYCARVGYSKGYFDSWGQGTLVTVSS
VL: DIQMTQSPSTLSASVGDRVTITCRASESISSWLAWYQQKPGKAPKVLIYDASSLESGVPSRFSGSGSGTEYTLTISSLQPDDFASYYCQQYKSYWTFGQGTKVEIK
notes: Human IgG1 Fc (H1H)
B6: H1H136P (antibody, human IgG1, V domains shown)
VH: EVQLVESGGGLVQPGGSLRLSCAASGFTFSSYDMSWVRQAPGKGLEWVSGISGSGDSTYYAGSVKGRFTISRDNSKNTLYLQMNSLRAEDTAVYYCAYDYSNYWDHYGMDVWGQGTTVTVSS
VL: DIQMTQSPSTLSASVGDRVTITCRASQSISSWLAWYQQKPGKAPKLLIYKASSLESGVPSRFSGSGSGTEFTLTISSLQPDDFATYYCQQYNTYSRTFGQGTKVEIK
notes: Human IgG1 Fc (H1H)
B7: H1H157P (antibody, human IgG1, V domains shown)
VH: QVQLVESGGGVVQPGRSLRLTCKASGFTFSIYGINWVRQASGKGLDWVAVISDDGSDKKYADSVKGRFTISRDNSKNTVYLEMSRLRSEDTAVYFCAKDRFTGNHYYGMDVWGQGTTVTVSS
VL: DIQMTQSPSSLSASVGDRVSITCRASQDISDYLAWFQQKPGKAPKSLIYAASILQNGVPSRFSGSGSGTDFTLTISSLQPEDFALYYCHQYNRFPWTFGQGTKVEIK
notes: Human IgG1 Fc (H1H)
B8: H1H158P (antibody, human IgG1, V domains shown)
VH: QVQLVESGGGVVQPGGSLRLSCAASGFTFSIYGIHWVRQAPGKGLEWVAVISDDGSNKKYADSVKGRFTISRDNSKNTLYLQMNSLRAEDTAIFYCAKDRITGTHYYGMDVWGQGTTVTVSS
VL: B7 VL with D31N, I53S, N56S, R61K, T69I, D70E, A84S, L85T
notes: Human IgG1 Fc (H1H)
B9: H1H155P (antibody, human IgG1, V domains shown)
VH: QVQLVESGGGVVQPGRSLRLSCAASGFTFSIYGMHWVRQAPGKGLEWVTVISDDGSKKYYVDSVKGRFTLSRDNSKNTLYLQMNSLRAEDTAVYYCARDRITGTNWYGMDVWGQGTTVTVSS
VL: DIQMTQSPSSLSASVGDRVTITCRASQDISNYLAWFQQKPGKAPKSLIFAASSLQSGGPSKFSGSGSGTDFTLTISSLQPEDFATYYCQQYNRYPFTFGPGTKVDIK
notes: Human IgG1 Fc (H1H)
B10: H1H159P (antibody, human IgG1, V domains shown)
VH: EVQLVESGGGLVQPGGSLRLSCAASRFTFTNYWMSWVRQAPGKGLEWVAKIKQDGSEKYYLDSVKDRFTISRDNAKNSLYLQMNSLRAEDTAVYYCASSSSWYDYYYGMDVWGHGTTVTVSS
VL: EIVLTQSPDFQSVTPKEKVTITCRASQSIGTNLHWYQQRPDQSPKLLIKFASQSFSGVPSRFSGSGSGTDFTLTINSLEAEDAATYYCHQTNFLPHTFGGGTKVEIKR
notes: Human IgG1 Fc (H1H)
B11: H1H169P (antibody, human IgG1, V domains shown)
VH: B10 VH with T30S, N31T, S100I, S101T
VL: EIVLTQSPDFQSVTPKEKVTITCRASQSIGSNLHWYQQKPDQSPNLLIKFASQSFSGVPSRFSGSGSGTDFTLTINSLEAEDAATYYCHQTNFLPHTFGGGTKVEIK
notes: Human IgG1 Fc (H1H)
B12: H1H145P (antibody, human IgG1, V domains shown)
VH: EVQLVESGGGVVQPGGSLRLSCAASGFTFDDYAMHWVRQAPGKGLEWVSLISGDGGSTYYADSVKGRFTISRDNSKNSLYLQMNSLRTEDTALYYCAKNYDSSGYYYPYYYYYGMDVWGQGTTVTVSS
VL: not shown
notes: Human IgG1 Fc (H1H)
B13: H1H161P (antibody, human IgG1, V domains shown)
VH: QVQLVESGGGVVQPGRSLRLSCAASGFTFSNYGMYWVRQAPGKGLEWVTFISYDGSNKNYVDSMKGRFTISRDNSKNTLYLQMNSLRVEDTAVYYCAKDRISGTPWYGMDVWGQGTTVTVSS
VL: DIQMTQSPSSLSASVGDRVTITCRASQDIADYLAWFQQKPGKAPKSLIFAASSLESWVPLKFSGSGSGTDFTLTISSLQPEDFATYYCQQYSRFPITFGQGTKVEIK
notes: Human IgG1 Fc (H1H)
B14: H1H163P (antibody, human IgG1, V domains shown)
VH: B13 VH with Y35H, F50L, S52E, Y53H, M64V, S102T
VL: B13 VL with S92N, K103R, V104L
notes: Human IgG1 Fc (H1H)
B15: H1H153P (antibody, human IgG1, V domains shown)
VH: QVQLVESGGGVVQPGKSLRLSCAASGFTFSIYGMNWVRQAPGKGLDWVAVISDDGSNKDYVDSVRGRFTISRDNSKNTLYLQMNSLSAEDTAVYYCAKDRITGTHYYGLDVWGQGTTVTVSS
VL: DIQMTQSPSSLSASVGDRITITCRASQDIANYLAWFQQKPGNAPTSLIYAASILQSGVPSKFSGSGSGTDFTLTITSLQPEDFASYYCQQYNRKPWTFGRGTKVEIK
notes: Human IgG1 Fc (H1H)
B16: H1H171P (antibody, human IgG1, V domains shown)
VH: B15 VH with K16R, A40G, L109M
VL: B15 VL
notes: Human IgG1 Fc (H1H)

The binders below were run against T1, EGFR on A431 epidermoid carcinoma cells (human, UniProt P00533 25-1210) (assay: cell-based or functional assay).

Row | IC50 of A431 Proliferation [Molar] | Binder
1 | 5.47e-10 | B1
2 | 1.65e-09 | B2
3 | 2.3e-09 | B3
4 | 5.46e-10 | B4
5 | 2.77e-10 | B5

What follows are binders tested against T2, human monomeric EGFR (EGFR.mmh) (human, UniProt P00533 25-647) (assay: SPR 37C, mAb captured by anti-human Fc, EGFR.mmh analyte).
T2 construct: Soluble monomeric EGFR construct
Description: (§1) Different concentrations of human monomeric (EGFR.mmh; SEQ ID NO:386) and dimeric (EGFR.mFc; SEQ ID NO:387) proteins were injected over the anti-EGFR monoclonal antibody captured surface at a flow rate of 50 μI/min. Antibody-antigen association was monitored for 4-5 minutes while dissociation of antigen from the captured monoclonal antibody surface was monitored for 10 min. Kinetic association (kₐ) and dissociation (kd) rate constants were determined by processing and fitting the data to a 1:1 binding model using Scrubber 2.0 curve fitting software.

Row | binding result | Kd [nM] | koff [s⁻¹] | kon [M⁻¹ s⁻¹] | t1/2 [h] | Binder
6 | no binding | – | – | – | – | B6
7 | no binding | – | – | – | – | B7
8 | – | 5.9 | 0.000773 | 131000 | 0.25 | B8
9 | – | 0.962 | 0.000169 | 176000 | 1.13 | B9
10 | – | 0.682 | 0.000325 | 476000 | 0.6 | B10
11 | – | 1.31 | 0.000869 | 665000 | 0.217 | B11
12 | – | 4.35 | 0.000689 | 158000 | 0.283 | B1
13 | – | 15.5 | 0.00185 | 119000 | 0.1 | B2
14 | – | 21.8 | 0.00683 | 313000 | 0.0333 | B3
15 | – | 1.31 | 0.000708 | 540000 | 0.267 | B4
16 | – | 1.43 | 0.000195 | 137000 | 0.983 | B12
17 | – | 0.655 | 0.000321 | 489000 | 0.6 | B13
18 | – | 0.834 | 0.000426 | 511000 | 0.45 | B14
19 | – | 8.4 | 0.00113 | 134000 | 0.167 | B5
20 | – | 3.09 | 0.000235 | 76100 | 0.817 | B15
21 | – | 14.2 | 0.00113 | 79400 | 0.167 | B16

Each binder was assayed against T3, human dimeric EGFR (EGFR.mFc) (human) (assay: SPR 37C, mAb captured by anti-human Fc, EGFR.mFc analyte).
T3 construct: Soluble dimeric EGFR construct
Description: as §1

Row | binding result | Kd [nM] | koff [s⁻¹] | kon [M⁻¹ s⁻¹] | t1/2 [h] | Binder
22 | no binding | – | – | – | – | B6
23 | no binding | – | – | – | – | B7
24 | – | 0.0241 | 9.84e-06 | 408000 | 19.6 | B8
25 | – | 0.321 | 0.000106 | 329000 | 1.82 | B9
26 | – | 0.00344 | 5.63e-06 | 1.64e+06 | 34.2 | B10
27 | – | 0.00736 | 1.69e-05 | 2.29e+06 | 11.4 | B11
28 | – | 0.0332 | 1.2e-05 | 361000 | 16.1 | B1
29 | – | 0.12 | 4.05e-05 | 336000 | 4.77 | B2
30 | – | 0.0301 | 4.49e-05 | 1.49e+06 | 4.28 | B3
31 | – | 0.00598 | 1.13e-05 | 1.9e+06 | 17 | B4
32 | – | 0.232 | 5.86e-05 | 252000 | 3.28 | B12
33 | – | 0.00159 | 2.76e-06 | 1.73e+06 | 69.8 | B13
34 | – | 0.00117 | 2.12e-06 | 1.81e+06 | 90.8 | B14
35 | – | 0.0351 | 8.23e-06 | 234000 | 23.4 | B15
36 | – | 0.103 | 3.48e-05 | 339000 | 5.53 | B16

Target: T1, EGFR on A431 epidermoid carcinoma cells
Experiment: cell-based or functional assay
Remark: another data set of the same source

Row | ADCC EC50 [Molar] | Binder | Maximum Cell Killing (%)
37 | 1.49e-09 | B6 | 27
38 | 2.27e-13 | B7 | 36
39 | 2.32e-12 | B8 | 28
40 | 1.67e-11 | B9 | 30
41 | 2.69e-09 | B10 | 60
42 | 4.81e-09 | B11 | 27
43 | 1.19e-12 | B1 | 34
44 | 3.7e-13 | B2 | 35
45 | 5.83e-12 | B3 | 53
46 | 2.91e-13 | B4 | 25
47 | – | B12 | 0
48 | 9.8e-12 | B13 | 38
49 | 2.96e-10 | B14 | 48
50 | 5.48e-09 | B5 | 68
51 | 2.65e-11 | B15 | 31
52 | 8.94e-13 | B16 | 27
